Results taken from publication PMC9253517 (The Journal of Experimental Medicine, 2022).

B1: JN145 (antibody, V domains shown)
VH: QVQLVQSGAEVKKPGASVKVSCKASGYTFTSYYMHWVRQAPGQGLEWMGIINPSGGSTSYAQKFQGRVTMTRDTSTSTVYMELSSLRSEDTAVYYCARGESDDYVWGSYRYTNNWFDPWGQGTLVTVSS
VL: not shown
B2: JN136 (antibody, V domains shown)
VH: QVQLVESGGGVVQPGRSLRLSCAASGFTFSSYAMHWVRQAPGKGLEWVAVISYDGSNKYYADSVKGRFTISRDNSKNTLYLQMNSLRAEDTAVYYCARELAWRGITIFGVVIYNPFDYWGQGTLVTVSS
VL: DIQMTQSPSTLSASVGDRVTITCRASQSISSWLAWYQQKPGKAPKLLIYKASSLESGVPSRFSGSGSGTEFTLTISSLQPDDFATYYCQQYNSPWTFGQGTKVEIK
B3: JN142 (antibody, V domains shown)
VH: QVQLVQSGAEVKKPGASVKVSCKASGYTFTSYDINWVRQATGQGLEWMGWMNPNSGNTGYAQKFQGRVTMTRNTSISTAYMELSSLRSEDTAVYYCARVLAPYDYVWGSYRYDNWFDPWGQGTLVTVSS
VL: QSVLTQPPSVSAAPGQKVTISCSGSSSNIGNNYVSWYQQLPGTAPKLLIYDNNKRPSGIPDRFSGSKSGTSATLGITGLQTGDEADYYCGTWDSSLSALFGGGTKLTVL
B4: JN227 (antibody, V domains shown)
VH: QLQLQESGPGLVKPSETLSLTCTVSGGSISSSSYYWGWIRQPPGKGLEWIGSIYYSGSTYYNPSLKSRVTISVDTSKNQFSLKLSSVTAADTAVYYCAREGVITIFGVAQFDYWGQGTLVTVSS
VL: not shown
B5: JN034 (antibody, V domains shown)
VH: QVQLQESGPGLVEPSQTLSLTCAVSGGSISGGDYYWSWIRQPPGKGLEWIGYIYYSGSTFYNPSLYSRLTISVDTSKNQFSLKLSSVTAADTAVYYCAREGPAIFKIPNGFDIWGQGTMVTVSS
VL: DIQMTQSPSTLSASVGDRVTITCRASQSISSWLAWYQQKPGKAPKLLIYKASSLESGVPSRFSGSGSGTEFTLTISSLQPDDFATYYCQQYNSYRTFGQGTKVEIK
B6: JN139 (antibody, V domains shown)
VH: QVQLQESGPGLVKPSETLSLTCTVSGGSISNYFWSWIRQPPGQGLEWIGYIFYNGDTTYNPSLKSRVTISVDTSKNQFSLKLSSVTAADTAVYYCARDYYDSRGVFHGGFDSWGQGILVTVSS
VL: DIVMTQSPDSLAVSLGERATINCKSSQSVLYSSNSRNYLAWYQQRPGQPPKRLIYWASTRESGVPDRFSGSGSGTDFTLTISSLQAEDVAVYYCQQYYTNPPWTFGQGTKVEIK
B7: JN133 (antibody, V domains shown)
VH: QLQLQESGPGLVKPSETLSLTCTVSGGSISSGSNYWGWIRQPPGKGLEWIGTIYYSGATYFSPSLKNRITISVDTSKNQFSLRLSSVIAADTAVYYCARLPFQNYYFYGMDVWGKGTTVTVSS
VL: SYELTQPPSVSVSPGQTARITCSGDVLPKQYAYWYQQKPGQAPVLVISKDSERPSGIPERFSGSSSGTTVTLTISGVQGEDEADYHCQSADSSGTWVFGGGTKLTVL
B8: JN106 (antibody, V domains shown)
VH: EVQLVESGGGLVQPGGSLRLSCAASGFTFSENWMSWVRQAPGKGLEWVGNIKQDASEKYFVDSVKGRFTISRDNAKNSLYLQMDSLRAEDTAVYFCARWGYSNSYYYIDCWGQGTLVTVSS
VL: QAVVTQEPSFSVSPGGTVTFTCGLTSGSVSASNHPSWYQQTPGQAPRTLMYGTNIRSSGVPDRFSGSILGNKAALTITGAQADDECDYYCVLYIGDGVWVFGGGTKLTVL
B9: JN140 (antibody, V domains shown)
VH: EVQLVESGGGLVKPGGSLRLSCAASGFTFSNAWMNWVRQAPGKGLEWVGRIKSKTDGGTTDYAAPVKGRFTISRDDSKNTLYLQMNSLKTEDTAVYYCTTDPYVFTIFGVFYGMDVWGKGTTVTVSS
VL: QSALTQPASVSGSPGQSITISCTGTSSDVGSYNLVSWYQQHPGKAPKLMIYEVSKRPSGVSNRFSGSKSGNTASLTISGLQAEDEADYYCCSYAGSSTHHWVFGGGTKLTVL
B10: JN131 (antibody, V domains shown)
VH: EVQLVESGGGLVKPGGSLRLSCAASGFTFNSYSMNWVRQAPGKGLEWVSSISSSSNFIYYADSVKGRFTISRDNAKNSLYLQMNSLRAEDTAMYYCARDPGYRSSWFEVYYFDYWGPGTLVTVSS
VL: QSALTQPASVSGSPGQSITISCTGTSSDVGSYNLVSWYQQHPGKAPKLVIYEVTKRPSGVSNRFSGSKSGNTASLTISGLQAEDEADYYCCSYGGSTTSPYVFGTGTKVTVL
B11: JN144 (antibody, V domains shown)
VH: QVQLVQSGPEVKKPGASVKVSCKASDYTFTSYDIIWVRQAPGQGLEWMGWISTHNGNTNYAQELQGRVTMTRETSTSTAHMELRSLRSDDTAVYYCARGPNRYLRLLEWSIPADWFFDLWGRGTLVTVSS
VL: EIVLTQSPGTLSLSPGDRATLSCRASQSVPSTSIAWYQQKPGQAPRLLFHGAASRAIGIPDRFSGSGSGTDFTLTISRLEPEDSAVYYCQHCGDSPPLLTFGPGTKVDIK
B12: JN141 (antibody, V domains shown)
VH: EVQLVESGGGLVQPGGSLRLSCAASGFTFSSYSMNWVRQAPGKGLEWVSYISSSSSTISYADSVKGRFTISRDNAKNSLYLQMNSLRAEDTAVYYCASGKGVGFDYWGQGTLVTVSS
VL: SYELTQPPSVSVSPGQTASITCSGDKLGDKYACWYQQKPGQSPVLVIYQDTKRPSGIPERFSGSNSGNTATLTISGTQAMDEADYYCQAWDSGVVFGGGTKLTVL
B13: JN138 (antibody, V domains shown)
VH: QVQLVQSGTEVKKPGASVKVSCKASGYTFTSYYMHWVRQAPGQGLEWMGIINPSGGSTSYAQKFQGRVTMTRDTSTSTVYMELSSLRSEDTAVYYCARAELGSGSYPYYGMDVWGKGTTVTVSS
VL: SYELTQPPSVSVSPGQTARITCSGDALPKQYAYWYQQKPGQAPVLVIYKDSERPSGIPERFSGSSSGTTVTFTISGVQAEDEADYYCQSADSSGSYVVFGGGTKLTVL
B14: JN229 (antibody, V domains shown)
VH: QVQLVQSGAEVKKPGSSVKVSCKASGGRFSSTAISWVRQAPGQGLEWMGGIIPIFGAPTDVQKFQGRVTITADQSTSTAYMELSNLRSEDTAVYYCATLGNYDFLTGNTFSYFDYWGQGTLVTVSS
VL: NFMLTQPHSVSESLGKTVTISCTRTSGSIASDYVQWYQQRPGSSPTTVIYENFQRPSGVPDRFSASVDSSSNSASLTISGLRAEDEADYYCQSHDRSDFLPVFGGGTQLTVL
B15: JN038 (antibody, V domains shown)
VH: QVQLVQSGAEVKKPGSSVKVSCKASGGRFSSTAISWVRQAPGQGLEWMGGIIPIFGAPTDVQKFQGRVTITADQSTSTAYMELSNLRSEDTAVYYCATLGNYDFLTGNTFSYFDYWGQGTLVTVSS
VL: DIQLTQSPSSLSASVGDRVTITCRAGQSIGNYLNWYQQKPGKAPKVLIYGASSLQSGVPSRFSGSGSGTDFTLTISSLQPEDFASYYCQQSFTTPLTFGGGTKVEIK
B16: JN135 (antibody, V domains shown)
VH: QLQLQESGPGLVKPSETLSLTCTVSGGSISSSSYYWGWIRQPPGKGLEWIGSIYYSGSTYYNPSLKSRVTISVDTSKNQFSLKLSSVTAADTAVYYCARLIAATWTFGGVIFNWFDPWGQGTLVTVSS
VL: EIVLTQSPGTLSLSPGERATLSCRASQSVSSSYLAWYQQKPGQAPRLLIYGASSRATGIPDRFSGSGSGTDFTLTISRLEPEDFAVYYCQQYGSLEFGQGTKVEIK
B17: JN130 (antibody, V domains shown)
VH: QVQLQESGPGLVKPSQTLSLTCTVSGGSISSGDYYWSWIRQPPGKGLEWIGYIYYSGSTYYNPSLKSRVTISVDTSKNQFSLKLSSVTAADTAVYYCARVLRFYDNIWENYRLPRYFDYWGQGTLVTVSS
VL: QSALTQPRSVSGSPGQSVSISCTGTSSDVGGSEYVSWYQQHPGKAPKLMIYDVNQRPSGVPARFSGSKSGNTASLTISGLQAEDEADYYCCSYAGTYNFEVFGGGTKLSVL
B18: JN108 (antibody, V domains shown)
VH: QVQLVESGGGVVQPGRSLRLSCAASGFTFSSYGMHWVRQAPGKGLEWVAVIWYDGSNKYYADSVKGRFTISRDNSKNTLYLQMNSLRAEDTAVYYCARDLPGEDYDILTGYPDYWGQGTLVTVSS
VL: QSALTQPASVSGSLGQSITISCTGTSSDVGSYNLVSWYQQHPGKVPKLMIYEANKRASGVSDRFSGSKTDNTASLTISGLQAEDEADYYCCSYAGSRTHVIFGGGTKLTV

What follows are binders tested against SARS-CoV-2 Wuhan-Hu-1 NTD (SARS-CoV-2, UniProt P0DTC2 14-307) (assay: cell-based or functional assay).

Binder	neutralisation IC50, WT (293TAce2)
B1	0.688 µg/mL
B2	> 1 µg/mL
B3	> 1 µg/mL
B4	> 1 µg/mL
B5	> 1 µg/mL
B6	> 1 µg/mL
B7	> 1 µg/mL
B8	> 1 µg/mL
B9	> 1 µg/mL
B10	> 1 µg/mL
B11	> 1 µg/mL
B12	> 1 µg/mL
B13	0.401 µg/mL
B14	> 1 µg/mL
B15	> 1 µg/mL
B16	0.947 µg/mL
B17	> 1 µg/mL

These binders were tested against SARS-CoV-2 Wuhan-Hu-1 NTD (SARS-CoV-2, UniProt P0DTC2) (assay: cell-based or functional assay).

Binder	neutralisation IC50, WT (293TAce2)
B18	> 1 µg/mL
